PMC2018633 (Nucleic Acids Research, 2007)

Key:
P. abyssi aCBF5 protein = biological target: T1, P. abyssi aCBF5 protein (Pyrococcus abyssi, UniProt Q9V1A5 1-334); experiment: cell-based or functional assay
T1 sequence (looked up): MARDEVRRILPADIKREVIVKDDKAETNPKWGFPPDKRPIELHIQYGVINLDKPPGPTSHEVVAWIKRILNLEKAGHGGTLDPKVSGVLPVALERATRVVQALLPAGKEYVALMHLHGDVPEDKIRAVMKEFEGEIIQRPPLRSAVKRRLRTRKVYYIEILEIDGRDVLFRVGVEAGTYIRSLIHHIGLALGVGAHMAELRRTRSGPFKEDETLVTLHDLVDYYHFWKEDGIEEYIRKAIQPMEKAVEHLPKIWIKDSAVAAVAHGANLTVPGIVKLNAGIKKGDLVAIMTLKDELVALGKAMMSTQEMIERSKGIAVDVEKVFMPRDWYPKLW

aCBF5 K53A variant = biological target: T2, aCBF5 K53A variant (Pyrococcus abyssi, UniProt Q9V1A5 1-334, K53A); experiment: native gel or EMSA
T2 sequence (looked up): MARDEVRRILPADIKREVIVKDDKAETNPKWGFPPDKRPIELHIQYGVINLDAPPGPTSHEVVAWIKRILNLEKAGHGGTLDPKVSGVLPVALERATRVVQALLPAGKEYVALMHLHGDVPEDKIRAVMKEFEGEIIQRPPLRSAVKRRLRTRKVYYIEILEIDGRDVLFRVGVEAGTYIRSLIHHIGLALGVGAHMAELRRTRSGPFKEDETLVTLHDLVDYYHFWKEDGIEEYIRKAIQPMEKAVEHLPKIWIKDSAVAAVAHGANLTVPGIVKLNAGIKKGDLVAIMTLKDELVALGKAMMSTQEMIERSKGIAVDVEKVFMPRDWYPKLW

aCBF5 R202A variant = biological target: T3, aCBF5 R202A variant (Pyrococcus abyssi, UniProt Q9V1A5 1-334, R202A); experiment: native gel or EMSA
T3 sequence (looked up): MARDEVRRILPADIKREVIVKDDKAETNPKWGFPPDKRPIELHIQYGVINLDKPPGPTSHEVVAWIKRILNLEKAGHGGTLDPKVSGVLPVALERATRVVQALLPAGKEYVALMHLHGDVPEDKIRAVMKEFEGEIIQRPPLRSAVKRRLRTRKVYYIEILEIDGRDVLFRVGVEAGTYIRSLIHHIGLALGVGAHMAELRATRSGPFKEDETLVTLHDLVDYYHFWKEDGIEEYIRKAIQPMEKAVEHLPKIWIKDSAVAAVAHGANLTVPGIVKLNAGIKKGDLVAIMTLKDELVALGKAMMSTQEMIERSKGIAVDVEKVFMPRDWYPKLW

aCBF5 H77A variant = biological target: T4, aCBF5 H77A variant (Pyrococcus abyssi, UniProt Q9V1A5 1-334, H77A); experiment: native gel or EMSA
T4 sequence (looked up): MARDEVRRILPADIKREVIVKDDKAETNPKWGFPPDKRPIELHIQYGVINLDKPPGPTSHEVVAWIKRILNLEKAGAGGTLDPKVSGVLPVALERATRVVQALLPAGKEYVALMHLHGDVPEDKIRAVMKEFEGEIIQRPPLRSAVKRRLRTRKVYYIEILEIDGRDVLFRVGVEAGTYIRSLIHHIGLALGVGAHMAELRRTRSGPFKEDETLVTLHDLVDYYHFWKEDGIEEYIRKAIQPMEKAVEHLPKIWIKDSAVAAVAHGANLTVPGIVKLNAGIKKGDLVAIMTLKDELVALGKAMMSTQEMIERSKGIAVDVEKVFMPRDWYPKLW

level of aCBF5-tRNAAsp complexes by EMSA, with against without aNOP10 (P. abyssi aCBF5 protein): ~4 fold | binding result (aCBF5 K53A variant): binds | binding result (aCBF5 R202A variant): binds | binding result (aCBF5 H77A variant): binds
B1: P. abyssi aNOP10 protein (natural protein, Pyrococcus abyssi, UniProt Q9V0E3 1-60, looked up)
chain: MRFRIRKCPKCGRYTLKETCPVCGEKTKVAHPPRFSPEDPYGEYRRRLKRELLGIGRKEK
